Patent USRE49294

Key:
[1] = target: T1, Tel protelomerase (bacteriophage PY54) (UniProt Q8W5V1); test: cell_activity; details: SS- integrant at lambda attB, 42 C; no processing of SS- plasmid
T1 sequence: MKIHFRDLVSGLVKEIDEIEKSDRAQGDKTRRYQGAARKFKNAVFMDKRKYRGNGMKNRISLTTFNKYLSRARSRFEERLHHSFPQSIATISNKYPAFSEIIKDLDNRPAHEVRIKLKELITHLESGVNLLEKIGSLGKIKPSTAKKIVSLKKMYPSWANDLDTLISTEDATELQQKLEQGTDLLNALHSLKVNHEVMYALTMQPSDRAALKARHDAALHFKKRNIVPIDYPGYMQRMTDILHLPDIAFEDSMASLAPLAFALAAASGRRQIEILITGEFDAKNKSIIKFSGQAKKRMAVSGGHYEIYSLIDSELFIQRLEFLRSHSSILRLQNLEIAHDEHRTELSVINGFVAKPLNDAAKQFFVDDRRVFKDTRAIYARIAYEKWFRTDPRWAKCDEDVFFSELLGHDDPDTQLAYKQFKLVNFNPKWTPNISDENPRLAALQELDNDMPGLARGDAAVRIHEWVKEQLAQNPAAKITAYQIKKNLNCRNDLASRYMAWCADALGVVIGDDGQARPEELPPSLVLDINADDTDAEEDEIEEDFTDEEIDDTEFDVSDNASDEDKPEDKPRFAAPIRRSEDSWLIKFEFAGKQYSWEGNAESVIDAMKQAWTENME

[2] = target: T2, TelN protelomerase (bacteriophage N15) (UniProt Q77WP1); test: cell_activity; details: SS- integrant at lambda attB, 42 C
T2 sequence: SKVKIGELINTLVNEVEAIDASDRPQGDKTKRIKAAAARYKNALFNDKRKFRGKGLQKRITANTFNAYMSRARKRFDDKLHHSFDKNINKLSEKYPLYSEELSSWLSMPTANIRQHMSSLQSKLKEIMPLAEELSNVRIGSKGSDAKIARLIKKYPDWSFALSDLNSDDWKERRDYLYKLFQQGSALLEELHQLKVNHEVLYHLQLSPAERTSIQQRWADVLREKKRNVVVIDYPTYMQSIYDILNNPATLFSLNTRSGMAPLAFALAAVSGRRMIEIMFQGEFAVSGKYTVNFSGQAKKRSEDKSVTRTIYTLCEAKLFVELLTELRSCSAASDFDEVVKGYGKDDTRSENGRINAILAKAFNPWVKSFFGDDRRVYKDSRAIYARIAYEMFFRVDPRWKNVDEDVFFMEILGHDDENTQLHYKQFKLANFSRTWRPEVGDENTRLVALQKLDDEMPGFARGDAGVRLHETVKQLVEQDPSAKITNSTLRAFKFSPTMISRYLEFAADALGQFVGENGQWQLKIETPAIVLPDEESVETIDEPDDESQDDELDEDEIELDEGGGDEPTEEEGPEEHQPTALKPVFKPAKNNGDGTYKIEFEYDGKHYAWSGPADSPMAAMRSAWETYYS

SS-minus plasmid (no target site)
activity (fraction viable) [1]: 1 | activity (fraction viable) [2]: 0.6
